According to the supplement of paper PMC10567573:

B1: TBX5 (parent)
chain: FHEVGTEMIITKAGRRMFPSYKVK
B2: TMEM175 (parent)
chain: SCTIIFLASIFQLAMWTTALLHQA

Variants of: B1
Assay: protein stability index of a GFP-peptide fusion (GPS, HEK-293T) (PSI 1-6); higher = more stable
Conditions: c terminus: a fixed tail appended
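Also: lentivirally expressed fusions sorted by FACS into six bins by GFP to DsRed ratio, PSI derived from sequencing read proportions per bin multiplied by bin number.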

Variant | protein stability index
FHVVGTEMIITKAGRRMFPSYKVK [E3V] | 2.58
FHFVGTEMIITKAGRRMFPSYKVK [E3F] | 2.39
FHTVGTEMIITKAGRRMFPSYKVK [E3T] | 1.03
FHHVGTEMIITKAGRRMFPSYKVK [E3H] | 1.06
FHPVGTEMIITKAGRRMFPSYKVK [E3P] | 2.42
FHRVGTEMIITKAGRRMFPSYKVK [E3R] | 2.58
FHIVGTEMIITKAGRRMFPSYKVK [E3I] | 4.17
FHAVGTEMIITKAGRRMFPSYKVK [E3A] | 1.87
FHCVGTEMIITKAGRRMFPSYKVK [E3C] | 2.54
FHQVGTEMIITKAGRRMFPSYKVK [E3Q] | 1.8
FHKVGTEMIITKAGRRMFPSYKVK [E3K] | 1.45
FHSVGTEMIITKAGRRMFPSYKVK [E3S] | 2.8
FHDVGTEMIITKAGRRMFPSYKVK [E3D] | 1.26
FHNVGTEMIITKAGRRMFPSYKVK [E3N] | 1.03
FHEVPTEMIITKAGRRMFPSYKVK [G5P] | 2.05
FHEVDTEMIITKAGRRMFPSYKVK [G5D] | 2.58
FHEVHTEMIITKAGRRMFPSYKVK [G5H] | 1.92
FHEVATEMIITKAGRRMFPSYKVK [G5A] | 2.44
FHEVQTEMIITKAGRRMFPSYKVK [G5Q] | 2.13
FHEVKTEMIITKAGRRMFPSYKVK [G5K] | 1.88
FHEVYTEMIITKAGRRMFPSYKVK [G5Y] | 1.49
FHEVMTEMIITKAGRRMFPSYKVK [G5M] | 1.69

Variant | protein stability index
FHEVSTEMIITKAGRRMFPSYKVK [G5S] | 2.76
FHEVVTEMIITKAGRRMFPSYKVK [G5V] | 1.23
FHEVTTEMIITKAGRRMFPSYKVK [G5T] | 1.92
FHEVCTEMIITKAGRRMFPSYKVK [G5C] | 2.02
FHEVITEMIITKAGRRMFPSYKVK [G5I] | 3.47
FHEVNTEMIITKAGRRMFPSYKVK [G5N] | 1.5
FHEVLTEMIITKAGRRMFPSYKVK [G5L] | 1.92
FVEVGTEMIITKAGRRMFPSYKVK [H2V] | 2.38
FLEVGTEMIITKAGRRMFPSYKVK [H2L] | 2.07
FREVGTEMIITKAGRRMFPSYKVK [H2R] | 2.53
FTEVGTEMIITKAGRRMFPSYKVK [H2T] | 1.85
FGEVGTEMIITKAGRRMFPSYKVK [H2G] | 2.48
FSEVGTEMIITKAGRRMFPSYKVK [H2S] | 2.53
FQEVGTEMIITKAGRRMFPSYKVK [H2Q] | 1.84
FDEVGTEMIITKAGRRMFPSYKVK [H2D] | 2.67
FEEVGTEMIITKAGRRMFPSYKVK [H2E] | 3.09
FIEVGTEMIITKAGRRMFPSYKVK [H2I] | 1.69
FFEVGTEMIITKAGRRMFPSYKVK [H2F] | 2.39
FCEVGTEMIITKAGRRMFPSYKVK [H2C] | 1.72
FMEVGTEMIITKAGRRMFPSYKVK [H2M] | 2.03
FPEVGTEMIITKAGRRMFPSYKVK [H2P] | 2.27
FNEVGTEMIITKAGRRMFPSYKVK [H2N] | 2.93

Variant | protein stability index
FYEVGTEMIITKAGRRMFPSYKVK [H2Y] | 2.41
FWEVGTEMIITKAGRRMFPSYKVK [H2W] | 1.57
FKEVGTEMIITKAGRRMFPSYKVK [H2K] | 2.24
FAEVGTEMIITKAGRRMFPSYKVK [H2A] | 2.04
AHEVGTEMIITKAGRRMFPSYKVK [F1A] | 3.81
QHEVGTEMIITKAGRRMFPSYKVK [F1Q] | 3.25
CHEVGTEMIITKAGRRMFPSYKVK [F1C] | 2.18
HHEVGTEMIITKAGRRMFPSYKVK [F1H] | 2.41
KHEVGTEMIITKAGRRMFPSYKVK [F1K] | 3.54
EHEVGTEMIITKAGRRMFPSYKVK [F1E] | 3.68
YHEVGTEMIITKAGRRMFPSYKVK [F1Y] | 2.55
MHEVGTEMIITKAGRRMFPSYKVK [F1M] | 3.02
NHEVGTEMIITKAGRRMFPSYKVK [F1N] | 3.4
LHEVGTEMIITKAGRRMFPSYKVK [F1L] | 2.3
THEVGTEMIITKAGRRMFPSYKVK [F1T] | 3.13
WHEVGTEMIITKAGRRMFPSYKVK [F1W] | 2.46
IHEVGTEMIITKAGRRMFPSYKVK [F1I] | 2.44
GHEVGTEMIITKAGRRMFPSYKVK [F1G] | 3.65
SHEVGTEMIITKAGRRMFPSYKVK [F1S] | 3.09
DHEVGTEMIITKAGRRMFPSYKVK [F1D] | 3.1
RHEVGTEMIITKAGRRMFPSYKVK [F1R] | 2.58
PHEVGTEMIITKAGRRMFPSYKVK [F1P] | 3.5

Variant | protein stability index
VHEVGTEMIITKAGRRMFPSYKVK [F1V] | 2.58
FHEVGAEMIITKAGRRMFPSYKVK [T6A] | 1.93
FHEIGTEMIITKAGRRMFPSYKVK [V4I] | 2.41
FHEAGTEMIITKAGRRMFPSYKVK [V4A] | 1.97
FHECGTEMIITKAGRRMFPSYKVK [V4C] | 2
FHERGTEMIITKAGRRMFPSYKVK [V4R] | 1.42
FHEDGTEMIITKAGRRMFPSYKVK [V4D] | 2.48
FHEEGTEMIITKAGRRMFPSYKVK [V4E] | 2.23
FHELGTEMIITKAGRRMFPSYKVK [V4L] | 2.09
FHETGTEMIITKAGRRMFPSYKVK [V4T] | 2.34
FHEMGTEMIITKAGRRMFPSYKVK [V4M] | 1.6
FHENGTEMIITKAGRRMFPSYKVK [V4N] | 2.05
FHEFGTEMIITKAGRRMFPSYKVK [V4F] | 2.65
FHEHGTEMIITKAGRRMFPSYKVK [V4H] | 1.85
FHEPGTEMIITKAGRRMFPSYKVK [V4P] | 1.86
FHESGTEMIITKAGRRMFPSYKVK [V4S] | 1.95
FHEYGTEMIITKAGRRMFPSYKVK [V4Y] | 2.46
FHEGGTEMIITKAGRRMFPSYKVK [V4G] | 2.32
FHEKGTEMIITKAGRRMFPSYKVK [V4K] | 1.98
FHEQGTEMIITKAGRRMFPSYKVK [V4Q] | 1.96

Variants of: B2
Assay: as above
Conditions: c terminus: a fixed tail appended

Variant | protein stability index
SCTIIFLASIFQLAMWTTALLHQW [A24W] | 3.03
SCTIIFLASIFQLAMWTTALLHQV [A24V] | 1.5
SCTIIFLASIFQLAMWTTALLHQR [A24R] | 2.43
SCTIIFLASIFQLAMWTTALLHQN [A24N] | 2.45
SCTIIFLASIFQLAMWTTALLHQY [A24Y] | 2.61
SCTIIFLASIFQLAMWTTALLHQT [A24T] | 3.01
SCTIIFLASIFQLAMWTTALLHQS [A24S] | 1.55
SCTIIFLASIFQLAMWTTALLHQQ [A24Q] | 2.56
